US20240360204A1 (UNITED STATES GOVERNMENT AS REPRESENTED BY THE DEPARTMENT …, published 2024)

B1: hu55G4λ (antibody, human IgG1, V domains shown)
VH: EVQLVQSGGGAVQPGRSLRLSCAVSGFTFSNFPMHWVRQAPGRGLEWVAVISHDETMIYYLDSVKGRFTISRDNSRNIVYLQMHSLRVEDTAVYYCARDTGVCSGGYCYTPRYFDQWGQGTLVTVSS
VL: QPVLTQPPSVSVAPGKTADITCGGDNIGRKHVHWYRQRPSQAPLLVIYDDSDRPSGIPERLSGINSGNTATLTISGVEVGDEADYYCQVWDNDAEQWVFGGGTKLTV
notes: also called 55G4 IgG antibody; 55LG4
B2: hu55L17κ (antibody, human IgG1, V domains shown)
VH: QVQLVQSGAEVKKPGSSVKVSCRPPGGTLSNYAINWVRQAPGQGLEWMGGIVPMFSTTKYAQKFQGRLTLTADLSTITAHMELNRLTSEDTAVYYCARDLPAPYCSADLCYKVLDAFDVWGQGTLVTVSS
VL: EIVLTQSPSSLSASVGDRVTITCQASQDISNYLNWYQQKPGKAPKLLIYKASSLESGVPSRFSGSGSGTEFTLTITRLQPDDFATYYCQQYEEYLRYSFGQGTKLEIK
notes: also called 55L17 IgG antibody
B3: hu55C11λ (antibody, human IgG1, V domains shown)
VH: QVQLVESGGGLVKPGGSLRLSCAASGFTFSSHSMNWVRQTPGKGLEWVSSINTISTFIYYADSVKGRFTVSRDNARNSLFLQMNTLTADDTGVYYCARERGNRFCDGDCYSGTTFDYWGPGTLVTVSS
VL: QPVLTQPPSVSVAPGRTSRITCEENNIGTKNVHWYQQKPGQAPLLVVHDDSDRPSGIPERFSGSNSGNTATLTISRVEAGDEADYYCQVWDSDNDRWLFGGGTRLTVLG
notes: also called 55c11 IgG antibody

Assays:
[1] = target: T1, Oxygen stable streptolysin O (SLOwt) from Streptococcus pyogenes, recombinant, N-terminal His-tag, BirA … (Streptococcus pyogenes, UniProt Q5XE40 32-571, limits assumed, mono-biotinylated at the BirA (AviTag) site where biotinylated SLOwt was used (ELISA; one lane of the Western blot)); test: cell-based or functional assay
[2] = target: T1, Oxygen stable streptolysin O (SLOwt) …; test: ELISA

Binder	aCTX IC50 (M): anti-cytotoxicity on epithelial cells (A549) [1] [M]	aHU IC50 (M): neutralization of SLOwt-induced RBC hemolysis [1] [M]	aMBEP IC50 (M): anti-membrane binding on epithelial cells [1] [M]	aMBRBC IC50 (M): anti-membrane binding on RBCs [1] [M]	Kd [2] [nM]
B1	5.1e-09	6.3e-09	2e-09	7.9e-09	0.046
B2	1.1e-09	2.7e-09	–	–	0.078
B3	2.6e-09	4.4e-09	1.1e-09	1.3e-09	0.038
